# Reference: the supplement of paper PMC10567573
# B1: SLC35F2 (parent)
# chain: SFMPLVIKVTSATSVNLGILTADL
# Variants of: B1
# Experiment: protein stability index of a GFP-peptide fusion (GPS, HEK-293T) (PSI 1-6); higher = more stable
# Conditions: c terminus: a fixed tail appended
# 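Further: lentivirally expressed fusions sorted by FACS into six bins by GFP to DsRed ratio, PSI derived from sequencing read proportions per bin multiplied by bin number.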
row,Variant,protein stability index
1,SFMPLVIKVTSKTSVNLGILTADL,4.17
2,SFMPLVIKVTSLTSVNLGILTADL,3.32
3,SFMPLVIKVTSCTSVNLGILTADL,4.33
4,SFMPLVIKVTSVTSVNLGILTADL,2.75
5,SFMPLVIKVTSNTSVNLGILTADL,2.58
6,SFMPLVIKVTSPTSVNLGILTADL,1.22
7,SFMPLVIKVTSHTSVNLGILTADL,2.37
8,SFMPLVIKVTSSTSVNLGILTADL,1.89
9,SFMPLVIKVTSITSVNLGILTADL,2.85
10,SFMPLVIKVTSQTSVNLGILTADL,2.82
11,SFMPLVIKVTSMTSVNLGILTADL,2.9
12,SFMPLVIKVTSETSVNLGILTADL,3.09
13,SFTPLVIKVTSATSVNLGILTADL,2.79
14,SFQPLVIKVTSATSVNLGILTADL,2.13
15,SFSPLVIKVTSATSVNLGILTADL,3.76
16,SFGPLVIKVTSATSVNLGILTADL,3.41
17,SFDPLVIKVTSATSVNLGILTADL,2.11
18,EFMPLVIKVTSATSVNLGILTADL,4.28
19,WFMPLVIKVTSATSVNLGILTADL,3.82
20,LFMPLVIKVTSATSVNLGILTADL,3.05
21,AFMPLVIKVTSATSVNLGILTADL,3.22
22,KFMPLVIKVTSATSVNLGILTADL,5.06
23,YFMPLVIKVTSATSVNLGILTADL,3.38
24,MFMPLVIKVTSATSVNLGILTADL,2.14

row,Variant,protein stability index
1,RFMPLVIKVTSATSVNLGILTADL,2.98
2,PFMPLVIKVTSATSVNLGILTADL,3.06
3,IFMPLVIKVTSATSVNLGILTADL,3.16
4,SFMPLPIKVTSATSVNLGILTADL,2.06
5,SFMPLIIKVTSATSVNLGILTADL,2.65
6,SFMPLSIKVTSATSVNLGILTADL,2
7,SFMPLNIKVTSATSVNLGILTADL,2.29
8,SFMPLRIKVTSATSVNLGILTADL,2.43
9,SFMPLMIKVTSATSVNLGILTADL,1.36
10,SFMPLVIKVTSATSVNLGIPTADL,2.38
11,SFMPLVIKVTSATSVNLGIMTADL,2.92
12,SFMPLVIKVTSATSVNLGITTADL,2.55
13,SFMPLVIKVTSATSVNLGIYTADL,3.69
14,SFMPLVIKVTSATSVNLGIETADL,2.87
15,SFMPLVIKVTSATSVNLGIATADL,3.33
16,SFMPLVIKVTSATSVILGILTADL,4.17
17,SFMPLVIKVTSATSVLLGILTADL,3.94
18,SFMPLVIKVTSATSVWLGILTADL,2.82
19,SFMPLVIKVTSATSVFLGILTADL,3.69
20,SFMPLVIKVTSATSVKLGILTADL,3.43
21,SFMPLVIKVTSATSVTLGILTADL,3.43
22,SFMPLVIKVCSATSVNLGILTADL,2.93
23,SFMPLVIKVESATSVNLGILTADL,2.98
24,SFMPLVIKVHSATSVNLGILTADL,3.25

row,Variant,protein stability index
1,SFMPLVIKVISATSVNLGILTADL,4.8
2,SFMPLVIKVSSATSVNLGILTADL,2.65
3,SFMPLVIKVRSATSVNLGILTADL,2.69
4,SFMPLVIKVNSATSVNLGILTADL,2.43
5,SFMPLVTKVTSATSVNLGILTADL,2.19
6,SFMPLVKKVTSATSVNLGILTADL,1.76
7,SFMPLVPKVTSATSVNLGILTADL,1.88
8,SFMPLVWKVTSATSVNLGILTADL,3.77
9,SFMPLVLKVTSATSVNLGILTADL,3.42
10,SFMPLVRKVTSATSVNLGILTADL,2.16
11,SFMPLVMKVTSATSVNLGILTADL,2.87
12,SFMPLVVKVTSATSVNLGILTADL,3.05
13,SFMPLVSKVTSATSVNLGILTADL,1.89
14,SFMPLVIKVTSATSVNLGILMADL,2.77
15,SFMPLVIKVTSATSVNLGILLADL,2.33
16,SFMPLVIKVTSATSVNLGILYADL,3.83
17,SFMPLVIKVTSATSVNLGILVADL,2.54
18,SFMPLVIKVTSATSVNLGILQADL,2.79
19,SFMPLVIKVTSATSVNLGILNADL,1.87
20,SFMPLVIKVTSATSWNLGILTADL,4.14
21,SFMPLVIKVTSATSINLGILTADL,1.93
22,SFMPLVIKVTSATSYNLGILTADL,2.21
23,SFMPLVIKVTSATSPNLGILTADL,2.73
24,SFMPLVIKVTSATSNNLGILTADL,2.58

row,Variant,protein stability index
1,SFMPLVIKVTSATSHNLGILTADL,2.88
2,SFMPLVIKVTSATSFNLGILTADL,3.58
3,SFMPLVIKVTSATSCNLGILTADL,2.21
4,SFMPLVIKVTSATSDNLGILTADL,3.98
5,SFMPLVIKVTSATSTNLGILTADL,3.48
6,SFMPLVIKVTSATSVNLGILTAGL,3.96
7,SFMPLVIKVTSATSVNLGILTAFL,2.91
8,SFMPLVIKVTSATSVNLGILTANL,3.05
9,SFMPLVIKVTSATSVNLGILTAIL,3.05
10,SFMPLVIKVTSATSVNLGILTASL,2.11
11,SFMPLVIKVTSATSVNLGILTIDL,4
12,SFMPLVIKVTSATSVNLGILTHDL,3.34
13,SFMPLVIKVTSATSVNLGILTLDL,2.58
14,SFMPLVIKVTSATSVNLGILTDDL,2.67
15,SFMPLVIKVTSATSVNLGILTGDL,3.15
16,SFMPLVIKVTSATSVNLGILTKDL,2.21
17,SFMPLVIKVTSATSVNLGILTRDL,2.35
18,SFMPLVIKVTSATSVNLGILTFDL,2.92
19,SFMPLVIKVTSATSVNLGILTNDL,2.95
20,SFMPLVIKVTSATSVNLGILTYDL,3.41
21,SFMTLVIKVTSATSVNLGILTADL,2.71
22,SFMRLVIKVTSATSVNLGILTADL,5.37
